Holding throughout (experiment): purified protein
Details in all cases: untreated (not acid-activated) enzyme, 50 mM TEA/HCl pH 7.0, 30°C

Substrate in data set [1]: CC(C)C[C@H](N)C(=O)O
Substrate in data set [2]: COC(=O)[C@@H](N)CC(C)C
Substrate in data set [3]: CSCC[C@H](N)C(=O)O
Substrate in data set [4]: NC(=O)CC[C@H](N)C(=O)O
Substrate in data set [5]: N[C@@H](Cc1ccccc1)C(=O)O

The record followed here is article PMC7568252, “Recombinant expression of an L‐amino acid oxidase from the fungus Hebeloma cylindrosporum in Pichia pastoris including fermentation” (MicrobiologyOpen, 2020).

B1: 9-hcLAAO4 (9His-hcLAAO4) (Hebeloma cylindrosporum) (protein)
chain: ADTTSVPFDAESRDQIFQHHARSVISGYTNTLGEKNISVPSSPPGGERVGILGAGIGGLYSALILQSLDVPFEIIEASNRVGGRLFTHKFPNGGKYDYYDVGAMRYPLPKSDDKGNYQPGVMQRVGQLFTYLGMHKQLIPYYFKSNKSPGFQYFNGVRARIGEGSSFDAPALGINSSLIDIGVTKIVNDAVGPFAQALFDDLQKHTTTGWDDMMKNDAYSTRSYFSFKYLPSPSFGLPSEHFSTRVINWLETFDKSTGWYDRGLTETVLEAIAFGEVGDGEVDWRCIDGGSHVLPDTIAAFLHKKGGNAFVMNASVTAIGLENPNKEDSPMVVVAGGQKRKYSHVISTLPLPVLRTVDLKNSKLDIVQSNALRKLQYGPSIKIGILFKEPWWTTGQDKNGEKFDLVGGQSYTDLPIRTVVYPSYGVNTNAPSNTLIASYCWTNDAERMGSLIGTGKKTYEEQLEHLVLSNLAAVHNTDYQYLKDRLVDVHSWDWNHNPLTMGAFAFFGPGDFQDLYTSLNRPAANGKLHFAGEALSVRHAWVVGALDSAWRAVYNYLYVTDPAKLPKFFELWGKNAEWFEQPGDGKEPNSDNSLLEKFVRRTHGTVSV
By Km is commonly meant the substrate concentration at which the rate is half of its maximum. By Vmax is commonly meant the rate approached at saturating substrate. Regarding B1, the Michaelis-Menten constant (Km) in “purified protein [1]” turned out to be 40 ± 40 µM; in “purified protein [2]” it was 3010 ± 680 µM; in “purified protein [3]”, 160 ± 100 µM; in “purified protein [4]”, 510 ± 110 µM; in the data set “purified protein [5]” it was 70 ± 70 µM. Moreover, the Vmax in “purified protein [1]” is 7.67 µmol/min/mg; in “purified protein [2]” it was 8.41 µmol/min/mg; in the data set “purified protein [3]”, 5.98 µmol/min/mg; in “purified protein [4]” it was 8.87 µmol/min/mg; in “purified protein [5]”, 3.25 µmol/min/mg.
